This note sets out measurements from publication PMC5843802, “DATATOC: a novel conjugate for kit-type ^68Ga labelling of TOC at ambient temperature” (EJNMMI Radiopharmacy and Chemistry, 2016).

This series is classed as physicochemical. On the procedure:
The lipophilicity was determined using the shake-flask method (logP) and qualitatively by radio-HPLC relative to ^68Ga-DOTATOC (Notni et al. [2013]; Du et al. [1998]). Radiolabels were prepared following acetone-PP. Analytical radio-HPLC (LiChrospher 100-RP-18EC, 1 mL/min) for lipophilicity studies was based on a gradient using H2O (A) and MeCN (B), each containing 0.1 % TFA. Mobile phase gradient: 0–1.5 min 1 % B, 1.5–10.5 min 99 % B, 11.5 min 99 % B, 12–15 min 1 % B. The HPLC was coupled to a UV (Hitachi L-7400) and a radioactivity (Gamma Raytest) detection system. HPLC grade solvents were used and degassed by sonication for 15–20 min prior to use.

For `C[C@@H](O)[C@@H]1NC(=O)[C@H](CCCCN)NC(=O)[C@@H](Cc2c[nH]c3ccccc23)NC(=O)[C@H](Cc2ccc(O)cc2)NC(=O)[C@@H](NC(=O)[C@@H](Cc2ccccc2)NC(=O)CN2CCN(CC(=O)O)CCN(CC(=O)O)CCN(CC(=O)O)CC2)CSSC[C@@H](C(=O)N[C@H](CO)[C@@H](C)O)NC1=O` [^68Ga-DOTATOC, metal not drawn], the “radio-HPLC retention time (tR) as measure of lipophilicity” value came out at 10.3 min.
